Where two headings read alike, the source gives them in different places.
Legend:
non-reducing SDS-PAGE [1] = target: the molecule itself; assay: non-reducing SDS-PAGE
non-reducing SDS-PAGE [2] = target: the molecule itself; assay: non-reducing SDS-PAGE; remark: listed apart in the source

B1: Fgf15 (wild-type, mouse), in Hek293T conditioned medium (ligand, UniProt O35622 26-218, looked up)
chain: RPLAQQSQSVSDEDPLFLYGWGKITRLQYLYSAGPYVSNCFLRIRSDGSVDCEEDQNERNLLEFRAVALKTIAIKDVSSVRYLCMSADGKIYGLIRYSEEDCTFREEMDCLGYNQYRSMKHHLHIIFIQAKPREQLQDQKPSNFIPVFHRSFFETGDQLRSKMFSLPLESDSMDPFRMVEDVDHLVKSPSFQK
non-reducing SDS-PAGE [1]
  stoichiometry N: 2

B2: Fgf15 (wild-type, mouse), in serum of mice after hydrodynamic delivery of the plasmid (ligand, UniProt O35622 26-218, looked up)
chain: RPLAQQSQSVSDEDPLFLYGWGKITRLQYLYSAGPYVSNCFLRIRSDGSVDCEEDQNERNLLEFRAVALKTIAIKDVSSVRYLCMSADGKIYGLIRYSEEDCTFREEMDCLGYNQYRSMKHHLHIIFIQAKPREQLQDQKPSNFIPVFHRSFFETGDQLRSKMFSLPLESDSMDPFRMVEDVDHLVKSPSFQK
non-reducing SDS-PAGE [2]
  stoichiometry N: 2

Reference: PMC12315504 (The FASEB Journal, 2021)
